Data reported in US20110280881A1, “NOVEL ANTI-HSP90 MONOCLONAL ANTIBODY” (RIKEN, priority 2010, published 2011).

Key:
[1] = tested on: cell surface HSP90; test: FACS staining of cell surface HSP90 on DC2.4 cells not subjected to membrane permeabilization; format: binding; conditions: DC2.4 cells not permeabilized, biotinylated antibody 1 μg/ml, 4° C.
Protocol: (§1) (1) 1.1 mg of the biotinylation reagent EZ-Link (registered trademark) Sulfo-NHS-Biotin (21217, Takara Bio Inc.) was dissolved in 250 μl of pure water (concentration 10 mM). 2 of the solution of the biotinylation reagent was added to 100 of an antibody protein (1 mg/ml), and the reaction was allowed to proceed while cooling on ice for 2 hours. After the reaction, the unreacted biotin reagent was removed using Centricon[5k] (Millipore). The reaction product was adjusted to a final concentration of 1 mg/ml and stored at 4° C. (2) DC2.4 not subjected to membrane permeabilization (1×10^6 cells/0.1 ml), along with the biotinylated anti-HSP90 antibody (1 μg/ml), was incubated at 4° C. for 30 minutes. For negative control, DC2.4 was likewise incubated in an antibody-free PBS. (3) After the unreacted antibody was removed, DC2.4 (1×10^6 cells/0.1 ml), along with PE-cy5 streptavidin (eBioscience, 15-4317-82, used at a concentration of 0.5 μg/ml), was incubated at 4° C. for 30 minutes. (4) After the unreacted PE-cy5 streptavidin was removed, the cells were analyzed by FACS (Becton Dickinson).
The right panels of FIGS. 2A and B show FACS data (histograms) for DC2.4 cells stained with each monoclonal antibody in the same manner as Example 2.

[2] = tested on: cell surface HSP90; test: FACS staining of antigen-presenting cells with the 6H8 antibody; format: binding; conditions: DC2.4, mouse BMDC, human immature and mature DC, mouse peritoneal macrophages, J774
Protocol: as §1, with “Dickinson). […]” for “Dickinson).”

[3] = tested on: OT-I CD8+ T cells; test: In vivo cross-presentation assay with free 6H8 antibody administered concurrently; parameters: species or system mouse; conditions: 72 hours
Protocol: (1) CFSE-labeled CD8^+ T cells of an OT-I/CD45.1 mouse were transferred to recipient mice from the tail vein, with 6H8-OVA [or 6H8 (F(ab′)2)—OVA, or OVA, or IgG2a-OVA] (0.3 μg) and the free 6H8 antibody [or 6H8 (F(ab′)2) or IgG2a] (30 μg) administered from the tail vein concurrently. (2) 72 hours later, the spleen was recovered from each mouse, and 2×10^6 splenocytes were stained with the PE-CD45.1 antibody in a 96-well round-bottomed plate for 30 minutes (while cooling on ice). (3) The CFSE intensity of CD45.1-positive cells (OT-I CD8^+ T cells) was determined using FACS Canto (BD).

[4] = tested on: cytotoxic T cells specific for OVA257-264 epitope; test: Induction of OVA257-264-specific cytotoxic T cells by immunization (tetramer staining, 51Cr release); format: in vivo; conditions: 3 μg per mouse
Protocol: The mice were immunized twice at a 1-week interval. One week after second immunization, splenocytes were cultured in the presence of the OVA257-264 peptide for 5 days. The resulting cytotoxic T cells were monitored by tetramer staining [T cells were stained using T-Select H-2K^b OVA Tetramer-[…]-PE (MBL, TS5001-1, amount used=1 test/tube) at room temperature for 30 minutes], and standard ^51Cr release assay [2×10^6 each of mouse tumor cells E.G7, supplied by Dr. Michael Bevan at the University of Washington, U.S.A. (see Cell vol. 54:777-785, 1988), and EL4 (purchased from ATCC) were labeled with 50 microcuries of sodium ^51Cr, and used as the target cells; the cytotoxic T cells were added to 5×10^3 target cells as indicated in FIG. 8E; after cultivation for 4 hours, free ^51Cr in the supernatant was measured to calculate the cytotoxic activity; the EL4 cells with or without pulsing with the peptide OVA257-264 were prepared].

[5] = tested on: OT-II CD4+ T cells; test: In vitro antigen presentation assay, DC2.4 cells with OT-II CD4+ T cells, IFNγ; format: cell-based, mouse; conditions: DC2.4 pulsed with series of doses, IFNγ secreted
Protocol: Next, DC2.4 cells were pulsed with a series of doses of 6H8-OVA (fractions 15 to 19) and free OVA (fraction 33) and incubated along with OT-I CD8^+ T cells and OT-II CD4^+ T cells [splenocytes of an OT-II mouse were recovered, and CD11b-positive cells were removed according to a standard protocol using BD IMag anti mouse CD11b magnetic particles DM (BD Biosciences Pharmingen, 558013); next, CD4-positive cells were purified according to a standard protocol using BD IMag anti mouse CD4 particles DM (BD Biosciences Pharmingen, 551539); the cells obtained were used as the OT-II CD4^+ T cells], and the amount of IFNγ secreted from T cells was measured, whereby the cross-presentation potential of 6H8-OVA was evaluated.

Molecule	recognition of cell surface HSP90 (FACS) [1]	recognition of cell surface HSP90 on antigen-presenting cells (FACS) [2]	effect of concurrently administered free antibody on OT-I CD8+ T cell proliferation reaction by 6H8-OVA ([3]; free antibody 30 μg with 6H8-OVA 0.3 μg)	tetramer-positive cells after immunization ([4]; twice at 1-week interval, splenocytes cultured with OVA257-264 5 days)	cytotoxicity in 51Cr release assay ([4]; twice, target cells E.G7, EL4 with or without OVA257-264)	antigen presentation to OT-II CD4+ T cells [5]	proliferation reaction of adoptively transferred OT-I CD8+ T cells ([3]; 0.3 μg alone)
6H8: anti-HSP90 monoclonal antibody produced by hybridoma FERM BP-11222; epitope … (antibody) VH: QVQLQQSGPELVKPGASVRISCKASGYTFTSYYIHWVKQRPGQGLEWIGWIYPGNVNTKYNEKFKGKATLTADKSSSTAYMQLSSLTSEDSAVYFCARYGNYPFAYWGQGTLVTVSAAKTTAPSVYPLAPVCGDTTGSSVTLGCLVKGYF VL: DVVMTQTPLSLPVSLGDQASISCRSSQSLVHSNGNTYLHWYLQKPGQSPKLLIYKVSNRFSGVPDRFSGSGSGTDFTLKISRVEAEDLGVYFCSQSTHVPPTFGGGTKLEIKRADAAPTVSIFPPSSEQLTSGGASVVCFLNNFYPKDINVKWKIDGS	recognized cell surface HSP90 with high sensitivity	recognized cell surface HSP90 on cells other than human PBMC-derived immature DC	remarkably enhanced	–	–	–	–
6H8-OVA: high molecular weight conjugate of the 6H8 antibody and maleimide-activated OVA (conjugate) VH: QVQLQQSGPELVKPGASVRISCKASGYTFTSYYIHWVKQRPGQGLEWIGWIYPGNVNTKYNEKFKGKATLTADKSSSTAYMQLSSLTSEDSAVYFCARYGNYPFAYWGQGTLVTVSAAKTTAPSVYPLAPVCGDTTGSSVTLGCLVKGYF VL: DVVMTQTPLSLPVSLGDQASISCRSSQSLVHSNGNTYLHWYLQKPGQSPKLLIYKVSNRFSGVPDRFSGSGSGTDFTLKISRVEAEDLGVYFCSQSTHVPPTFGGGTKLEIKRADAAPTVSIFPPSSEQLTSGGASVVCFLNNFYPKDINVKWKIDGS GSIGAASMEFCFDVFKELKVHHANENIFYCPIAIMSALAMVYLGAKDSTRTQINKVVRFDKLPGFGDSIEAQCGTSVNVHSSLRDILNQITKPNDVYSFSLASRLYAEERYPILPEYLQCVKELYRGGLEPINFQTAADQARELINSWVESQTNGIIRNVLQPSSVDSQTAMVLVNAIVFKGLWEKAFKDEDTQAMPFRVTEQESKPVQMMYQIGLFRVASMASEKMKILELPFASGTMSMLVLLPDEVSGLEQLESIINFEKLTEWTSSNVMEERKIKVYLPRMKMEEKYNLTSVLMAMGITDVFSSSANLSGISSAESLKISQAVHAAHAEINEAGREVVGSAEAGVDAASVSEEFRADHPFLFCIKHIATNAVLFFGRCVSP	–	–	–	produced tetramer-positive cells	cytotoxicity to OVA257-264 epitope was also observed	weak, although it was better than free OVA	slight proliferation reaction
